Results on eight molecules are retold here after patent publication US5824484, “RXR homodimer formation” (La Jolla Cancer Research Foundation).

Data set [1] deals with T1, RXR alpha homodimer (UniProt P19793 P19793:1-462). Description: EMSA; strong with 9-cis-RA, lesser with 1e-6 M RA. As to conditions: chain copies: 2 (stated); label: 32P. As to the method: (§1) (a) In vitro synthesized RXRα was incubated either with (+) or without (−) indicated hormones (10^-7M 9-cis-RA; 10^-6M RA; 10^-6M T_3) in the presence or absence of in vitro synthesized TRα or RARβ for 30 min at room temperature. After this preincubation, the reaction mixtures were analyzed by gel retardation assay using ^32P-labeled TREpal as probe. Lane 1 represents the nonspecific binding of unprogrammed reticulocyte lysate. Open triangles indicate the nonspecific complex observed with unprogrammed reticulocyte lysate. Solid triangles indicate the specific TRα-RXRα heterodimer binding. Arrows indicate specific RXRα homodimer binding. The RXRα/RARβ heterodimer migrates at the same position as the RXRα homodimer. For comparison, the effect of 9-cis-RA on RARβ binding is shown.
T1 sequence (P19793 whole entry, one chain of several): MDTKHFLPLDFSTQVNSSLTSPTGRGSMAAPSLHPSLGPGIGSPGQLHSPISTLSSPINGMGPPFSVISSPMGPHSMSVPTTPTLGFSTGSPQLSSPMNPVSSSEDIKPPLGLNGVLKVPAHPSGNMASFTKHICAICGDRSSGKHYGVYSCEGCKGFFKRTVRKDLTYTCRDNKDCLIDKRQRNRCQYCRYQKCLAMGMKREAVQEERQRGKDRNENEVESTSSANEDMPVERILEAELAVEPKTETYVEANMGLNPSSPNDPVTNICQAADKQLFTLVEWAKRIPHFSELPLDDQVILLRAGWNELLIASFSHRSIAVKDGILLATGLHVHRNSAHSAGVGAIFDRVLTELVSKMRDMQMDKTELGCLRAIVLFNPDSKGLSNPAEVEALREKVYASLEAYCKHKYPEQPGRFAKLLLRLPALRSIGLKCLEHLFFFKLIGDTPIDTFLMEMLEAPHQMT
(§2) (b) The effect of 9-cis-RA on RXR homodimer binding of ApoAI-RARE or CRBPII-RARE was analyzed essentially as described in FIG. 1a. Lane 1 represents the nonspecific binding of unprogrammed reticulocyte lysate, which are indicated by the open triangles. Solid triangles indicate the RAR/RXR heterodimer complex. Arrows indicate the specific RXR binding complex.
(§3) Gel retardation assays using in vitro synthesized receptor protein are described in the FIG. 1 legend. The following oligonucleotides and their complements were used as probes in FIGS. 3 and 4.

The target in another data set is T2, RAR beta (UniProt P10826-2 P10826-2:1-448).
T2 sequence: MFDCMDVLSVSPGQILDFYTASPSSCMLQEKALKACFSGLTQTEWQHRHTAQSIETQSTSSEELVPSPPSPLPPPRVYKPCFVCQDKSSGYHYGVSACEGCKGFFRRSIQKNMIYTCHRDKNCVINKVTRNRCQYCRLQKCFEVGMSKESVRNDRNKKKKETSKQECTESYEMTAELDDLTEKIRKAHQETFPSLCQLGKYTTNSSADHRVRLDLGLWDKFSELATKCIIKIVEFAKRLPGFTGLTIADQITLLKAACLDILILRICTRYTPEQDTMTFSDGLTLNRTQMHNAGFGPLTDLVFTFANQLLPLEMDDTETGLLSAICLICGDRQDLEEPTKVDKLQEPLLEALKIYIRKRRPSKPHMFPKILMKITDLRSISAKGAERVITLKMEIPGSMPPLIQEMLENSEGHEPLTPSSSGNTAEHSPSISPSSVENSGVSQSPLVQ
Kind of data set: EMSA; RAR homodimer not induced by 9-cis-RA. As to conditions: label: 32P. The method, then:
as §1, §2, §3
A general note: In EMSA bound probe runs differently from free probe, usually more slowly.

For data set [2], the target named is T1, RXR alpha homodimer. Description: EMSA; with or without 9-cis-RA. As to conditions: chain copies: 2 (stated); label: 32P. As to the method: as §1
(§4) FIGS. 4a and 4c show the response element specific binding of RXR homodimer. The effect of 9-cis-RA on RXR binding on RA specific response elements (a), T_3 specific response elements (b), or estrogen specific response element (c) was analyzed by gel retardation assays as described in FIG. 1a. For comparison, the binding of RXR/RAR heterodimer (a), RXR/TR heterodimer (b) or estrogen receptor (c) is shown. Open triangles indicate the nonspecific binding of unprogrammed reticulocyte lysate. Solid triangle indicates the RAR/RXR heterodimer complex (a), TR/RXR heterodimer complex (b) or ER complexes (c). […]

The target in data set [3] is TR alpha/RXR alpha heterodimer (UniProt P10827-2;P19793 P10827-2:1-410,P19793:1-462). Kind of data set: EMSA. As to conditions: label: 32P. As to the method: as §1, §4
TR alpha/RXR alpha heterodimer, sequence (P10827 other isoform, or with tags, fused parts or gaps, chain 1 of 2): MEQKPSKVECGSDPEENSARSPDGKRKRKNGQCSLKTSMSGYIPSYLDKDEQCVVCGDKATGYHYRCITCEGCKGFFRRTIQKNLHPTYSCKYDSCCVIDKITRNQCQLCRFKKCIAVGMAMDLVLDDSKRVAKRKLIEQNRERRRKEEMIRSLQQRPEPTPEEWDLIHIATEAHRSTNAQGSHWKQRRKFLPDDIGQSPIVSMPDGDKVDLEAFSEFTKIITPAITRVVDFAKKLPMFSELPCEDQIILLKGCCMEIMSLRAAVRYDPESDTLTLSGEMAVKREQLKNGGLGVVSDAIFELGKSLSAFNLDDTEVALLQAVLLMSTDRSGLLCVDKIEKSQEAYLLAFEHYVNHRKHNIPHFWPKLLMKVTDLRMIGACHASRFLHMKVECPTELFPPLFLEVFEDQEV
TR alpha/RXR alpha heterodimer, sequence (P19793 whole entry, chain 2 of 2): as the sequence (P19793 whole entry, one chain of several) above
Data set [4] has as its target T1, RXR alpha homodimer. Kind of data set: EMSA; with 9-cis-RA. As to conditions: chain copies: 2 (stated); label: 32P. As to the method:
as §1, §4

Data set [5] concerns the target T1, RXR alpha homodimer. Description: EMSA; with 9-cis-RA; complex slower than heterodimer; reduced when RAR present. As to conditions: chain copies: 2 (stated); label: 32P. As to the method: as §1, §2, §3
The target of data set [6] is T1, RXR alpha homodimer. Description: EMSA; with 9-cis-RA (effect from 1e-9 M, optimal 1e-8 M); little binding without ligand; also induced by SR11217 and SR11237. As to conditions: chain copies: 2 (stated); label: 32P. The method, then:
as §1

The target in another data set is Estrogen receptor (UniProt P03372 P03372:1-595). Kind of data set: EMSA; ER complex shown for comparison. As to conditions: chain copies: 2 (inferred); label: 32P. As to the method: as §1, §4
Estrogen receptor, sequence (P03372 whole entry, one chain of several): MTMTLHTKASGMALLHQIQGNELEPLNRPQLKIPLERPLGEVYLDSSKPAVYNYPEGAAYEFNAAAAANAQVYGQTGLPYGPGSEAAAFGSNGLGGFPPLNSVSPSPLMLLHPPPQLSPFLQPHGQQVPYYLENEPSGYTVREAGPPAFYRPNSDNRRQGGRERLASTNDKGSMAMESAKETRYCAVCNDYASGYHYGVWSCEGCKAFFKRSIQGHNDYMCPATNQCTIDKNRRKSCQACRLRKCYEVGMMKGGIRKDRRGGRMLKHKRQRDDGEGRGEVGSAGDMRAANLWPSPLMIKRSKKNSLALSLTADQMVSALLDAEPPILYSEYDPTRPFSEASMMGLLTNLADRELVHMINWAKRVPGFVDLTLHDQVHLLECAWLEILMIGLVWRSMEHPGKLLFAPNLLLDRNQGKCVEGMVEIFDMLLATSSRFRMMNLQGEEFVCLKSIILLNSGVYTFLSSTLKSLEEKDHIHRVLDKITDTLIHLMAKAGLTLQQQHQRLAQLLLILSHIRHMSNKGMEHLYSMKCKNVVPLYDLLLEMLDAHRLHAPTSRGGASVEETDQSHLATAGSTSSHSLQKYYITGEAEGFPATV

B1: ApoAI-RARE (dsDNA)
DNA 1: GATCAGGGCAGGGGTCAAGGGTTCAGTGATC
DNA 2: GATCACTGAACCCTTGACCCCTGCCCTGATC
B1: the binding result in the data set with RXR alpha homodimer [1] is recorded as “binds”; with RAR beta, “no binding”.

B2: ME-TRE (dsDNA)
DNA 1: GATCCAGGACGTTGGGGTTAGGGGAGGACAGTGGGATC
DNA 2: GATCCCACTGTCCTCCCCTAACCCCAACGTCCTGGATC
With B2, the binding result with RXR alpha homodimer [2] is recorded as “no binding”; in data set [3], “binds”.

B3: CRBPI-RARE (dsDNA)
DNA 1: GATCCAGGTCAAAAAGTCAGGATC
DNA 2: GATCCTGACTTTTTGACCTGGATC
In the case of B3, the binding result with RXR alpha homodimer [4] is recorded as “no binding”.

B4: CRBPII-RARE (dsDNA)
DNA 1: GATCCAGGTCACAGGTCACAGGTCACAGTTCAAGATC
DNA 2: GATCTTGAACTGTGACCTGTGACCTGTGACCTGGATC
For B4, the binding result with RXR alpha homodimer [5] is “binds”.

B5: DR-5 (dsDNA)
DNA 1: GATCTCAGGTCATCCTCAGGTCAGATC
DNA 2: GATCTGACCTGAGGATGACCTGAGATC
Regarding B5, the binding result with RXR alpha homodimer [4] is listed as “no binding”.

B6: TREpal (dsDNA)
DNA 1: GATCTCAGGTCATGACCTGAGATC
DNA 2: GATCTCAGGTCATGACCTGAGATC
As for B6, the binding result with RXR alpha homodimer [6] is “binds”.

B7: MHC-TRE (dsDNA)
DNA 1: GATCCTGGAGGTGACAGGAGGACAGCGATC
DNA 2: GATCGCTGTCCTCCTGTCACCTCCAGGATC
With B7, the binding result with RXR alpha homodimer [2] is “no binding”; in data set [3] it was “binds”.

B8: ERE (dsDNA)
DNA 1: GATCTCAGGTCACTGTGACCTGAGATC
DNA 2: GATCTCAGGTCACAGTGACCTGAGATC
On to B8, for which, in the data set with Estrogen receptor, the binding result is “binds”.
